Patent US20170145112A1 (Genentech, published 2017)
Changes are numbered by the printed parent chain. Names and notes keep the numbering of the source. Blank lines part the entries; values can stand above or below the binder they belong to.

What was measured:
[1] = target: T1, Human complement Factor D, mature (human, UniProt P00746 27-253); test: cell-based or functional assay
Target sequence in this assay (P00746 27-253): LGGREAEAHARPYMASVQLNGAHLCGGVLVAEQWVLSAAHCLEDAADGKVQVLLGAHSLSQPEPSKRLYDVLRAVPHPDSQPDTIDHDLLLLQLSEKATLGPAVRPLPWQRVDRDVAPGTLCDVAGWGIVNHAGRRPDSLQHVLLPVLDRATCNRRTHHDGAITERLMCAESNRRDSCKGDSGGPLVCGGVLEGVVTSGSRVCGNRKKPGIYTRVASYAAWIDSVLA

[2] = target: T1, Human complement Factor D, mature; test: cell-based or functional assay; remark: listed apart in the source
[3] = target: T1, Human complement Factor D, mature; test: SPR, Fab captured by anti-huFab, human Factor D injected
Protocol: (§1) Kinetics and binding constant KD for Factor D binding to immobilized hu20D12 versions was determined by surface plasmon resonance (SPR) measurements on a Biacore®T200 instrument. […] After subtraction of the sensorgram observed for injection of running buffer, data were analyzed according to a 1:1 model using BiaEval software v4.1 (GE Healthcare) to extract the kinetics and affinity constants.

[4] = target: T1, Human complement Factor D, mature; test: cell-based or functional assay; remark: listed apart in the source
[5] = target: T1, Human complement Factor D, mature; test: SPR, Biacore T200, IgG captured by anti-Fc, human factor D injected
[6] = target: T1, Human complement Factor D, mature; test: cell-based or functional assay; remark: listed apart in the source
Target sequence in this assay (P00746 27-253): as above

[7] = target: T1, Human complement Factor D, mature; test: SPR, at the limit of detection
Target sequence in this assay (P00746 27-253): as above
Protocol: as §1

[8] = target: T1, Human complement Factor D, mature; test: SPR (Biacore T200): Fab captured with anti-huFab kit, human Factor D injected, 25 C, 1:1 model;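 note: sensorgrams were corrected by subtracting a blank injection of running buffer before fitting kinetic and affinity constants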
Protocol: as §1

[9] = target: T1, Human complement Factor D, mature; test: cell-based or functional assay; remark: listed apart in the source
[10] = target: T2, Cynomolgus monkey complement Factor D (cynomolgus monkey, UniProt P00746 26-253 (human entry)); test: SPR (Biacore T200), Fab format; cynomolgus Factor D (column 'KD (pM) cFD (cyno)')
T2 construct: also called cyfD; cFD
T2 chain: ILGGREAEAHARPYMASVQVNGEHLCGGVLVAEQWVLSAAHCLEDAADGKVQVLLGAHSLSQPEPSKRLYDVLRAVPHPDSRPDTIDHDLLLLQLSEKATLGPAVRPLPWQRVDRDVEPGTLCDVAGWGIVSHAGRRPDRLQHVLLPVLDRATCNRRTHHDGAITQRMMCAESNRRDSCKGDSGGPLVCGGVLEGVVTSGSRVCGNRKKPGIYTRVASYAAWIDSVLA

[11] = target: T1, Human complement Factor D, mature; test: cell-based or functional assay; remark: listed apart in the source
[12] = target: T1, Human complement Factor D, mature; test: SPR (refers to FIG. 11); hu20D12.v2.0
Protocol: as §1

B2: hu20D12.v1 Fab (Fab, V domains shown)
VH: EVQLVQSGAEVKKPGASVKVSCKASGYTFTSYYMYWVRQAPGQGLEWIGEINPTNGGTNFNEKFKSRATLTVDTSTSTAYLELSSLRSEDTAVYYCAREGGFAYWGQGTLVTVSS
VL: DIQMTQSPSSLSASVGDRVTITCKASQNVDTDVAWFQQKPGKAPKGLIYSASSRYSGVPSRFSGSGSGTDFTLTISSLQPEDFATYYCQQYNNYPLTFGQGTKVEIKR
notes: Fab expressed in E. coli
IC50 Hemolysis [2]: 2.8 nM
Kd [3]: 0.033 nM

B3: hu20D12.v1 IgG (antibody, V domains shown)
VH: B2 VH
VL: DIQMTQSPSSLSASVGDRVTITCKASQNVDTDVAWFQQKPGKAPKGLIYSASSRYSGVPSRFSGSGSGTDFTLTISSLQPEDFATYYCQQYNNYPLTFGQGTKVEIK
notes: Expressed as full length IgG in CHO cells
Hemolysis IC50 [4]: 4.3 nM
Kd [5]: 0.046 nM
koff [5]: 0.00067 s⁻¹
kon [5]: 1.5e+07 M⁻¹ s⁻¹

B4: hu20D12.v2.1.C+TP-Oct (Fab, V domains shown)
VH: B2 VH with N55S
VL: B2 VL with Y49R
modifications: C-terminal Cys (Cys-226, EU numbering) linked through maleimide to a 40K eight-armed PEG with tripentaerythritol (TP) core
IC50, TR-FRET assay of Factor D (50 pM) cleavage of factor B [6]: 31 pM

B5: hu20D12.v2.3.C+TP-Oct (Fab, V domains shown)
VH: B2 VH with T54Y, N55S, G57D
VL: B2 VL with Y49R
modifications: C-terminal Cys (Cys-226, EU numbering) linked through maleimide to a 40K eight-armed PEG with tripentaerythritol (TP) core
IC50, TR-FRET assay of Factor D (50 pM) cleavage of factor B [6]: 13 pM

B6: hu20D12.v1.1 Fab (Fab, V domains shown)
VH: B2 VH with N55Q
VL: B2 VL
notes: Fab expressed in E. coli; also called Hu20D12.v1.N54Q
IC50 Hemolysis [2]: 6.7 nM
Kd [3]: 0.045 nM

B7: hu20D12.v2.12 Fab (Fab, V domains shown)
VH: B2 VH with T54Y, N55S
VL: B2 VL with Y49R
Kd [7]: ~0.01 nM
Kd [8]: < 0.01 nM
koff [8]: 0.00015 s⁻¹
kon [8]: 1.8e+07 M⁻¹ s⁻¹

B13: hu20D12.v2.0 Fab (Fab, V domains shown)
VH: B2 VH with N55S
VL: B2 VL
notes: Fab expressed in E. coli; also called Hu20D12.v1.N54S; hu20D12.v1.N54S
IC50 in the TR-FRET assay, fold against lampalizumab [11]: ~2 fold
IC50 Hemolysis [2]: 4.7 nM
AVG IC50 (pM), TR-FRET assay of Factor D-dependent factor B activation [1]: 59.2 pM
FRET IC50 (TR-FRET assay of Factor D-dependent factor B activation), value 1 of 2 in the cell [9]: 0.051 nM
FRET IC50 (TR-FRET assay of Factor D-dependent factor B activation), value 2 of 2 in the cell [9]: 0.059 nM
Kd [12]: 0.039 nM
Kd [3]: 0.04 nM
Kd [10]: 0.152 nM
koff [8]: 0.00055 s⁻¹
kon [8]: 1.4e+07 M⁻¹ s⁻¹

B16: AFD.v8 Fab (Fab, V domains shown)
VH: EVQLVQSGPELKKPGASVKVSCKASGYTFTNYGMNWVRQAPGQGLEWMGWINTYTGETTYAEDFKGRFVFSLDTSVSTAYLQISSLKAEDTAVYYCEREGGVNNWGQGTLVTVSS
VL: DIQVTQSPSSLSASVGDRVTITCITSTSIESDMNWYQQKPGKVPKLLISGGNTLRPGVPSRFSGSGSGTDFTLTISSLQPEDVATYYCLQSDSLPYTFGQGTKVEIKR
notes: Variant of lampalizumab
AVG IC50 (pM), TR-FRET assay of Factor D-dependent factor B activation [1]: 27.6 pM
FRET IC50 (TR-FRET assay of Factor D-dependent factor B activation), value 1 of 2 in the cell [9]: 0.021 nM
FRET IC50 (TR-FRET assay of Factor D-dependent factor B activation), value 2 of 2 in the cell [9]: 0.028 nM
Kd [10]: 0.024 nM
Kd [8]: 0.0105 nM
koff [8]: 0.00021 s⁻¹
kon [8]: 2e+07 M⁻¹ s⁻¹

B18: AFD.v14 Fab (Fab, V domains shown)
VH: B16 VH with N103S
VL: B16 VL
notes: Variant of lampalizumab; also called SIESD.N103S
AVG IC50 (pM), TR-FRET assay of Factor D-dependent factor B activation [1]: 34 pM
IC50, TR-FRET assay of Factor D (50 pM) cleavage of factor B [6]: 26 pM
FRET IC50 (TR-FRET assay of Factor D-dependent factor B activation), value 1 of 3 in the cell [9]: 0.025 nM
FRET IC50 (TR-FRET assay of Factor D-dependent factor B activation), value 2 of 3 in the cell [9]: 0.034 nM
FRET IC50 (TR-FRET assay of Factor D-dependent factor B activation), value 3 of 3 in the cell [9]: 0.026 nM
Kd [10]: 0.056 nM
Kd [8]: 0.0233 nM
koff [8]: 0.00021 s⁻¹
kon [8]: 9e+06 M⁻¹ s⁻¹

Further lines, with some results ahead:

AVG IC50 (pM), TR-FRET assay of Factor D-dependent factor B activation [1]: 35.2 pM
B1: hu20D12.v2.3.C + PEG tetramer (Fab, V domains shown)
VH: B2 VH with T54Y, N55S, G57D
VL: B2 VL with Y49R
modifications: C-terminal Cys linked through maleimide to 40K-tetramer-PEG (Sunbright PTE-400MA)

AVG IC50 (pM), TR-FRET assay of Factor D-dependent factor B activation [1]: 31.2 pM
Kd [7]: ~0.01 nM
IC50, TR-FRET assay of Factor D (50 pM) cleavage of factor B [6]: 31 pM
FRET IC50 (TR-FRET assay of Factor D-dependent factor B activation), value 1 of 3 in the cell [9]: 0.025 nM
FRET IC50 (TR-FRET assay of Factor D-dependent factor B activation), value 2 of 3 in the cell [9]: 0.031 nM
FRET IC50 (TR-FRET assay of Factor D-dependent factor B activation), value 3 of 3 in the cell [9]: 0.031 nM
Kd [10]: 0.024 nM
Kd [8]: < 0.01 nM
koff [8]: 2.9e-05 s⁻¹
kon [8]: 1.2e+07 M⁻¹ s⁻¹
B8: hu20D12.v2.3 Fab (Fab, V domains shown)
VH: B2 VH with T54Y, N55S, G57D
VL: B2 VL with Y49R

Kd [8]: 10 nM
koff [8]: 0.03 s⁻¹
kon [8]: 3e+06 M⁻¹ s⁻¹
B9: hu20D12.v2.11 Fab (Fab, V domains shown)
VH: B2 VH with N55S
VL: B2 VL with Y55R

Kd [7]: ~0.01 nM
Kd [8]: < 0.01 nM
koff [8]: 0.00013 s⁻¹
kon [8]: 4.1e+07 M⁻¹ s⁻¹
B10: hu20D12.v2.13 Fab (Fab, V domains shown)
VH: B2 VH with N55S
VL: B2 VL with Y49R, N92E

Kd [7]: ~0.01 nM
FRET IC50 (TR-FRET assay of Factor D-dependent factor B activation) [9]: 0.024 nM
Kd [10]: 0.027 nM
Kd [8]: < 0.01 nM
koff [8]: 6e-05 s⁻¹
kon [8]: 1.9e+07 M⁻¹ s⁻¹
B11: hu20D12.v2.15 Fab (Fab, V domains shown)
VH: B2 VH with T54Y, N55S, G57E
VL: B2 VL with Y49R

Kd [7]: ~0.01 nM
FRET IC50 (TR-FRET assay of Factor D-dependent factor B activation) [9]: 0.025 nM
Kd [10]: 0.05 nM
Kd [8]: < 0.01 nM
koff [8]: 8e-05 s⁻¹
kon [8]: 1.5e+07 M⁻¹ s⁻¹
B12: hu20D12.v2.14 Fab (Fab, V domains shown)
VH: B2 VH with N55S, G57E
VL: B2 VL with Y49R

AVG IC50 (pM), TR-FRET assay of Factor D-dependent factor B activation [1]: 11 pM
B14: AFD.v8.C + PEG tetramer (Fab, V domains shown)
VH: B16 VH
VL: B16 VL
modifications: C-terminal Cys linked through maleimide to 40K-tetramer-PEG (Sunbright PTE-400MA)

AVG IC50 (pM), TR-FRET assay of Factor D-dependent factor B activation [1]: 14.8 pM
B15: AFD.v14.C + PEG tetramer (Fab, V domains shown)
VH: B16 VH with N103S
VL: B16 VL
modifications: C-terminal Cys linked through maleimide to a PEG tetramer

Kd [10]: 0.03 nM
B17: Lampalizumab (Fab, V domains shown)
VH: B16 VH with E62D
VL: B16 VL with S28D, E30D, S31D
notes: Humanized anti-Factor D Fab fragment; also called aFD.WT; FCFD4515S

Kd [5]: 0.066 nM
koff [5]: 0.00039 s⁻¹
kon [5]: 5.9e+06 M⁻¹ s⁻¹
B19: murine 20D12 (mu20D12) IgG (antibody, V domains shown)
VH: QVQLQQSGAELVKPGASVKLSCKASGYTFTSYYMYWVKERPGQGLEWIGEINPTNGGTNFNEKFKSKATLTVDTSSNTAYMQLSSLTSEDSAVYYCAREGGFAYWGQGTLVTVSA
VL: DIVMTQSQKFMSTSVGDRVSVTCKASQNVDTDVAWFQQKPGQSPRGLIYSASSRYSGVPDRFTGSGSGTDFTLTISNVQSEDLAEYFCQQYNNYPLTFGSGTKVEIK
notes: IgG format, mouse antibody
Hemolysis IC50 [4]: 4 nM
